According to the supplement of paper PMC5998384:

Columns and labels:
[1] = tested on: HeLa Kyoto; experiment: solubility in G1/S (NP-40 vs SDS abundance) (log2 ratio); higher = more soluble; details: cell cycle stage: G1/S
[2] = tested on: HeLa Kyoto; experiment: solubility change mitosis vs G1/S (difference of NP-40 vs SDS log2 ratios) (log2 ratio difference); higher = more soluble in mitosis
[3] = tested on: HeLa Kyoto; experiment: melting temperature (median over replicates), in situ; higher = more thermally stable
[4] = tested on: HeLa Kyoto; experiment: thermal stability score vs G1/S (z-score of summed log2 fold changes over temperatures); higher = more thermally stable than in G1/S
[5] = cell cycle stage: early G1 (4.5 h after nocodazole release)
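Throughout, for melting temperature (median over replicates), in situ: HeLa Kyoto cells synchronized by double thymidine or nocodazole block, proteins quantified by TMT10plex mass spectrometry, three independent biological replicates.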
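Throughout, for solubility change mitosis vs G1/S (difference of NP-40 vs SDS log2 ratios): synchronized HeLa Kyoto cells (double thymidine block for G1/S, nocodazole release for mitosis), protein amounts in NP-40 versus SDS lysates quantified by mass spectrometry, three biological replicates.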
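Throughout, for solubility in G1/S (NP-40 vs SDS abundance): HeLa Kyoto cells arrested at G1/S by double thymidine block, proteins quantified by TMT10plex mass spectrometry in mild NP-40 versus SDS extracts, three biological replicates.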
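Throughout, for thermal stability score vs G1/S (z-score of summed log2 fold changes over temperatures): synchronized HeLa Kyoto cells, proteins quantified by TMT10plex mass spectrometry, three biological replicates, mitosis taken 0.5 h after nocodazole release, G1/S directly after double thymidine block.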

| Substance | solubility in G1/S (log2) [1] | solubility change mitosis (log2) [2] | melting temperature ([3]; cell cycle stage: G1/S) [°C] | melting temperature ([3]; cell cycle stage: mitosis) [°C] | thermal stability score [4, 5] | thermal stability score ([4]; cell cycle stage: mitosis) |
| --- | --- | --- | --- | --- | --- | --- |
| METGTAPLVAPPRRHGAPAAPSPPPRGSRAGPVVVVAPGPPVTTATSAPVTLVAPGEARPAWVPGSAETSAPAPAPAPAPAPAVTGSTVVVLTLEASPEAPKPQLPSGPESPEPAAVAGVETSRALAAGADSPKTEEARPSPAPGPGTPTGTPTRTPSRTAPGALTAKPPLAPKPGTTVASGVTARSASGQVTGGHGAAAATSASAGQAPEDPSGPGTGPSGTCEAPVAVVTVTPAPEPAENSQDLGSTSSLGPGISGPRGQAPDTLSYLDSVSLMSGTLESLADDVSSMGSDSEINGLALRKTDKYGFLGGSQYSGSLESSIPVDVARQRELKWLDMFSNWDKWLSRRFQKVKLRCRKGIPSSLRAKAWQYLSNSKELLEQNPGKFEELERAPGDPKWLDVIEKDLHRQFPFHEMFAARGGHGQQDLYRILKAYTIYRPDEGYCQAQAPVAAVLLMHMPAEQAFWCLVQICDKYLPGYYSAGLEAIQLDGEIFFALLRRASPLAHRHLRRQRIDPVLYMTEWFMCIFARTLPWASVLRVWDMFFCEGVKIIFRVALVLLRHTLGSVEKLRSCQGMYETMEQLRNLPQQCMQEDFLVHEVTNLPVTEALIERENAAQLKKWRETRGELQYRPSRRLHGSRAIHEERRRQQPPLGPSSSLLSLPGLKSRGSRAAGGAPSPPPPVRRASAGPAPGPVVTAEGLHPSLPSPTGNSTPLGSSKETRKQEKERQKQEKERQKQEKEREKERQKQEKEREKQEKEREKQEKERQKQEKKAQGRKLSLRRKADGPPGPHDGGDRPSAEARQDAYF [TBC1D10B] | 0.0909 | -0.137 | 51.2 | 52.2 | 0.22 | 0.904 |
| MFSLDSFRKDRAQHRQRQCKLPPPRLPPMCVNPTPGGTISRASRDLLKEFPQPKNLLNSVIGRALGISHAKDKLVYVHTNGPKKKKVTLHIKWPKSVEVEGYGSKKIDAERQAAAAACQLFKGWGLLGPRNELFDAAKYRVLADRFGSPADSWWRPEPTMPPTSWRQLNPESIRPGGPGGLSRSLGREEEEDEEEELEEGTIDVTDFLSMTQQDSHAPLRDSRGSSFEMTDDDSAIRALTQFPLPKNLLAKVIQIATSSSTAKNLMQFHTVGTKTKLSTLTLLWPCPMTFVAKGRRKAEAENKAAALACKKLKSLGLVDRNNEPLTHAMYNLASLRELGETQRRPCTIQVPEPILRKIETFLNHYPVESSWIAPELRLQSDDILPLGKDSGPLSDPITGKPYVPLLEAEEVRLSQSLLELWRRRGPVWQEAPQLPVDPHRDTILNAIEQHPVVVISGDTGCGKTTRIPQLLLERYVTEGRGARCNVIITQPRRISAVSVAQRVSHELGPSLRRNVGFQVRLESKPPSRGGALLFCTVGILLRKLQSNPSLEGVSHVIVDEVHERDVNTDFLLILLKGLQRLNPALRLVLMSATGDNERFSRYFGGCPVIKVPGFMYPVKEHYLEDILAKLGKHQYLHRHRHHESEDECALDLDLVTDLVLHIDARGEPGGILCFLPGWQEIKGVQQRLQEALGMHESKYLILPVHSNIPMMDQKAIFQQPPVGVRKIVLATNIAETSITINDIVHVVDSGLHKEERYDLKTKVSCLETVWVSRANVIQRRGRAGRCQSGFAYHLFPRSRLEKMVPFQVPEILRTPLENLVLQAKIHMPEKTAVEFLSKAVDSPNIKAVDEAVILLQEIGVLDQREYLTTLGQRLAHISTDPRLAKAIVLAAIFRCLHPLLVVVSCLTRDPFSSSLQNRAEVDKVKALLSHDSGSDHLAFVRAVAGWEEVLRWQDRSSRENYLEENLLYAPSLRFIHGLIKQFSENIYEAFLVGKPSDCTLASAQCNEYSEEEELVKGVLMAGLYPNLIQVRQGKVTRQGKFKPNSVTYRTKSGNILLHKSTINREATRLRSRWLTYFMAVKSNGSVFVRDSSQVHPLAVLLLTDGDVHIRDDGRRATISLSDSDLLRLEGDSRTVRLLKELRRALGRMVERSLRSELAALPPSVQEEHGQLLALLAELLRGPCGSFDVRKTADD [DHX30] | -1.02 | 0.218 | 51.1 | 51.2 | -0.697 | -0.349 |
| AKAP9 | -0.0993 | -0.0345 | 49.3 | 49.6 | 1.11 | 1.77 |
| MQNSHMDEYRNSSNGSTGNSSEVVVEHPTDFSTEIMNVTEMEQSPDDSPNVNASTEETEMASAVDLPVTLTETEANFPPEYEKFWKTVENNPQDFTGWVYLLQYVEQENHLMAARKAFDRFFIHYPYCYGYWKKYADLEKRHDNIKPSDEVYRRGLQAIPLSVDLWIHYINFLKETLDPGDPETNNTIRGTFEHAVLAAGTDFRSDRLWEMYINWENEQGNLREVTAIYDRILGIPTQLYSHHFQRFKEHVQNNLPRDLLTGEQFIQLRRELASVNGHSGDDGPPGDDLPSGIEDITDPAKLITEIENMRHRIIEIHQEMFNYNEHEVSKRWTFEEGIKRPYFHVKPLEKAQLKNWKEYLEFEIENGTHERVVVLFERCVISCALYEEFWIKYAKYMENHSIEGVRHVFSRACTIHLPKKPMVHMLWAAFEEQQGNINEARNILKTFEECVLGLAMVRLRRVSLERRHGNLEEAEHLLQDAIKNAKSNNESSFYAVKLARHLFKIQKNLPKSRKVLLEAIERDKENTKLYLNLLEMEYSGDLKQNEENILNCFDKAVHGSLPIKMRITFSQRKVEFLEDFGSDVNKLLNAYDEHQTLLKEQDSLKRKAENGSEEPEEKKAHTEDTTSSSTQMIDGDLQANQAVYNYSAWYQYNYQNPWNYGQYYPPPPT [PRPF39] | 0.0352 | -0.157 | 47.2 | 50.4 | 1.54 | 2.13 |
| MAYQSLRLEYLQIPPVSRAYTTACVLTTAAVQLELITPFQLYFNPELIFKHFQIWRLITNFLFFGPVGFNFLFNMIFLYRYCRMLEEGSFRGRTADFVFMFLFGGFLMTLFGLFVSLVFLGQAFTIMLVYVWSRRNPYVRMNFFGLLNFQAPFLPWVLMGFSLLLGNSIIVDLLGIAVGHIYFFLEDVFPNQPGGIRILKTPSILKAIFDTPDEDPNYNPLPEERPGGFAWGEGQRLGG [DERL2] | -0.0605 | -0.0878 | 54.4 |  | -0.206 | -1.33 |
| MDLRQFLMCLSLCTAFALSKPTEKKDRVHHEPQLSDKVHNDAQSFDYDHDAFLGAEEAKTFDQLTPEESKERLGKIVSKIDGDKDGFVTVDELKDWIKFAQKRWIYEDVERQWKGHDLNEDGLVSWEEYKNATYGYVLDDPDPDDGFNYKQMMVRDERRFKMADKDGDLIATKEEFTAFLHPEEYDYMKDIVVQETMEDIDKNADGFIDLEEYIGDMYSHDGNTDEPEWVKTEREQFVEFRDKNRDGKMDKEETKDWILPSDYDHAEAEARHLVYESDQNKDGKLTKEEIVDKYDLFVGSQATDFGEALVRHDEF [CALU] | 0.281 | 0.167 | 57.8 | 60.3 | 1.04 | -0.549 |
| MFFTCGPNEAMVVSGFCRSPPVMVAGGRVFVLPCIQQIQRISLNTLTLNVKSEKVYTRHGVPISVTGIAQVKIQGQNKEMLAAACQMFLGKTEAEIAHIALETLEGHQRAIMAHMTVEEIYKDRQKFSEQVFKVASSDLVNMGISVVSYTLKDIHDDQDYLHSLGKARTAQVQKDARIGEAEAKRDAGIREAKAKQEKVSAQYLSEIEMAKAQRDYELKKAAYDIEVNTRRAQADLAYQLQVAKTKQQIEEQRVQVQVVERAQQVAVQEQEIARREKELEARVRKPAEAERYKLERLAEAEKSQLIMQAEAEAASVRMRGEAEAFAIGARARAEAEQMAKKAEAFQLYQEAAQLDMLLEKLPQVAEEISGPLTSANKITLVSSGSGTMGAAKVTGEVLDILTRLPESVERLTGVSISQVNHKPLRTA [FLOT1] | -0.837 | 0.121 | 55.3 | 53.7 | -2.16 | 0.224 |
| MIAAQLLAYYFTELKDDQVKKIDKYLYAMRLSDETLIDIMTRFRKEMKNGLSRDFNPTATVKMLPTFVRSIPDGSEKGDFIALDLGGSSFRILRVQVNHEKNQNVHMESEVYDTPENIVHGSGSQLFDHVAECLGDFMEKRKIKDKKLPVGFTFSFPCQQSKIDEAILITWTKRFKASGVEGADVVKLLNKAIKKRGDYDANIVAVVNDTVGTMMTCGYDDQHCEVGLIIGTGTNACYMEELRHIDLVEGDEGRMCINTEWGAFGDDGSLEDIRTEFDREIDRGSLNPGKQLFEKMVSGMYLGELVRLILVKMAKEGLLFEGRITPELLTRGKFNTSDVSAIEKNKEGLHNAKEILTRLGVEPSDDDCVSVQHVCTIVSFRSANLVAATLGAILNRLRDNKGTPRLRTTVGVDGSLYKTHPQYSRRFHKTLRRLVPDSDVRFLLSESGSGKGAAMVTAVAYRLAEQHRQIEETLAHFHLTKDMLLEVKKRMRAEMELGLRKQTHNNAVVKMLPSFVRRTPDGTENGDFLALDLGGTNFRVLLVKIRSGKKRTVEMHNKIYAIPIEIMQGTGEELFDHIVSCISDFLDYMGIKGPRMPLGFTFSFPCQQTSLDAGILITWTKGFKATDCVGHDVVTLLRDAIKRREEFDLDVVAVVNDTVGTMMTCAYEEPTCEVGLIVGTGSNACYMEEMKNVEMVEGDQGQMCINMEWGAFGDNGCLDDIRTHYDRLVDEYSLNAGKQRYEKMISGMYLGEIVRNILIDFTKKGFLFRGQISETLKTRGIFETKFLSQIESDRLALLQVRAILQQLGLNSTCDDSILVKTVCGVVSRRAAQLCGAGMAAVVDKIRENRGLDRLNVTVGVDGTLYKLHPHFSRIMHQTVKELSPKCNVSFLLSEDGSGKGAALITAVGVRLRTEASS [HK1] | -0.0302 | -0.149 | 51.5 | 51.9 | -0.647 | -0.641 |
| MAAKSQPNIPKAKSLDGVTNDRTASQGQWGRAWEVDWFSLASVIFLLLFAPFIVYYFIMACDQYSCALTGPVVDIVTGHARLSDIWAKTPPITRKAAQLYTLWVTFQVLLYTSLPDFCHKFLPGYVGGIQEGAVTPAGVVNKYQINGLQAWLLTHLLWFANAHLLSWFSPTIIFDNWIPLLWCANILGYAVSTFAMVKGYFFPTSARDCKFTGNFFYNYMMGIEFNPRIGKWFDFKLFFNGRPGIVAWTLINLSFAAKQRELHSHVTNAMVLVNVLQAIYVIDFFWNETWYLKTIDICHDHFGWYLGWGDCVWLPYLYTLQGLYLVYHPVQLSTPHAVGVLLLGLVGYYIFRVANHQKDLFRRTDGRCLIWGRKPKVIECSYTSADGQRHHSKLLVSGFWGVARHFNYVGDLMGSLAYCLACGGGHLLPYFYIIYMAILLTHRCLRDEHRCASKYGRDWERYTAAVPYRLLPGIF [DHCR7] | -0.604 | -0.0769 | 51 | 50.7 | 0.148 | -0.18 |
| MAEAEGESLESWLNKATNPSNRQEDWEYIIGFCDQINKELEGPQIAVRLLAHKIQSPQEWEALQALTVLEACMKNCGRRFHNEVGKFRFLNELIKVVSPKYLGDRVSEKVKTKVIELLYSWTMALPEEAKIKDAYHMLKRQGIVQSDPPIPVDRTLIPSPPPRPKNPVFDDEEKSKLLAKLLKSKNPDDLQEANKLIKSMVKEDEARIQKVTKRLHTLEEVNNNVRLLSEMLLHYSQEDSSDGDRELMKELFDQCENKRRTLFKLASETEDNDNSLGDILQASDNLSRVINSYKTIIEGQVINGEVATLTLPDSEGNSQCSNQGTLIDLAELDTTNSLSSVLAPAPTPPSSGIPILPPPPQASGPPRSRSSSQAEATLGPSSTSNALSWLDEELLCLGLADPAPNVPPKESAGNSQWHLLQREQSDLDFFSPRPGTAACGASDAPLLQPSAPSSSSSQAPLPPPFPAPVVPASVPAPSAGSSLFSTGVAPALAPKVEPAVPGHHGLALGNSALHHLDALDQLLEEAKVTSGLVKPTTSPLIPTTTPARPLLPFSTGPGSPLFQPLSFQSQGSPPKGPELSLASIHVPLESIKPSSALPVTAYDKNGFRILFHFAKECPPGRPDVLVVVVSMLNTAPLPVKSIVLQAAVPKSMKVKLQPPSGTELSPFSPIQPPAAITQVMLLANPLKEKVRLRYKLTFALGEQLSTEVGEVDQFPPVEQWGNL [GGA3] | 0.445 | -0.218 | 50.1 | 50.7 | 1.01 | 0.468 |
